# Measurements as given in publication PMC3251568.
# Molecular target: c-Abl (UniProt P00519)
# Experiment: anti-c-Abl IP, FLAG-PCNA western
# Conditions: reference: wild-type FLAG-PCNA; sites Y211
substance,measurement,value
PCNA (proliferating cell nuclear antigen) (from UniProt P12004) Y211F FLAG-PCNA,binding against the reference,weaker
